# Measured values from patent US20160326540A1, “Methods and Compositions Employing a Sulfonylurea-Dependent Stabilization Domain” (PIONEER HI-BRED INTERNATIONAL, INC., priority 2013, published 2016).
# Key:
# [1] = test system: E. coli KM3; type: cell-based; settings: for Control 84 hr (colony color intensity): M9 assay plates, no inducer (background activity), 84 hr at 30° C., ImageJ colony color intensity
# Method: Library L6 was assembled, rescued, ligated into pVER7314, transformed into E. coli KM3 and plated out onto LB carbenicillin/kanamycin, and carbenicillin only control media as before. Library plates were then picked into 42 384-well microtiter plates (˜16,000 clones) containing 60 μl LB carbenicillin (Cb) broth per well. After overnight growth at 37° C. the cultures were stamped onto M9 assay plates containing no inducer, 0.2 ppm, and 2.0 ppm chlorsulfuron as test inducer. Following incubation at 30° C. for ˜48 hrs, putative hits responding to chlorsulfuron treatment as determined by increased blue colony color were re-arrayed into six 96-well microtiter plates and used to stamp a fresh set of M9 assay plates to confirm the above results. For a more detailed analysis of the relative induction by chlorsulfuron, digital photographs were taken of the plates after various time points of incubation at 30° C. and colony color intensity measured using the digital image analysis freeware program ImageJ (Rasband, US National Institutes of Health, Bethesda, Md., USA, rsb.info.nih.gov/ij/, 1997-2007). […] From this analysis sequence-activity relationships were derived. […] Briefly, C at position 100, and Q at positions 108 and 109 strongly correlated with activation, while R at position 138, L at position 170, and A or G at position 173 were highly preferred in clones with the lowest background activity. […] This information will aid in the design of further libraries to improve responsiveness to chlorsulfuron. […]
# Library CsL3 construction and screening: Based on the IVM results the top performing residue substitutions were incorporated into library CsL3 (Table 14). The library was assembled with the oligonucleotides shown below in Table 19. The first and last primers in each set were used as rescue primers. To enable purification of hit proteins, a 6×His-tag between was added to the C-terminus of the ligand binding domain of each clone during the assembly and rescue process. The library was then inserted into pVER7334 SacI/AscI, transformed into E. coli assay strain Km3 and selected on LB+40 ug/ml Kanamycin and 50 ug/ml Carbenicillin. […] Colony color was then assessed at 24 and 96 hrs of incubation at 37° C. […] Also, while the C86M substitution was less frequent in the overall hit population it occurred in all top 26 clones.
# Creating novel diversity through random mutagenesis.
# Construction and screening of library CsL4.2.
# [2] = test system: β-gal background activity; assay: First and second round library screening (L1, L2) for induction by sulfonylurea ligands; type: cell-based; settings: initial screen, library L1, data not shown
# Description: The original library was designed to thifensulfuron, but once induction activity was established with other SU compounds having potentially better soil and in planta stability properties than the original ligand, the evolution process was re-directed towards these alternative ligands. Of particular interest were herbicides metsulfuron, sulfometuron, ethametsulfuron and chlorsulfuron. For this objective, parental clones L1-9, -22, -29 and -44 were chosen for further shuffling. Clone L1-9 has strong activity on both ethametsulfuron and chlorsulfuron; clone L1-22 has strong sulfometuron activity; clone L1-29 has moderate metsulfuron activity; and clone L1-44 has moderate activity on metsulfuron, ethametsulfuron and chlorsulfuron. (Data not shown.). No clones found in the initial screen were exceptionally reactive to metsulfuron. These four clones were also chosen due to their relatively strong repressor activity, showing low β-gal background activity without inducer. Strong repressor activity is important for establishing a system which is both highly sensitive to the presence of inducer, and tightly off in the absence of inducer.
# Based on the sequence information from parental clones L1-9, -22, -29 and -44, two second round libraries were designed, constructed and screened. The first library, L2, consisted of a ‘family’ shuffle whereby the amino acid diversity between the selected parental clones was varied using synthetic assembly of oligonucleotides to find clones improved in responsiveness to any of the four new target ligands.
# The L2 oligonucleotides were assembled, cloned and screened as per the protocol described for library L1 except that each ligand was tested at 2 ppm to increase the stringency of the assay, which is a 10-fold reduction from 1st round library screening concentration.
Molecule,Control 84 hr (colony color intensity) [1],other results
"L6-1B03 (protein, Sulfonylurea responsive repressor) MGSRLDKSKVINSALELLNEVGIEGLTTRKLAQKLGVEQPTLYWHVKNKRALLDALAIEMMDRHATHICPLEGESWQDFLRNNAKSMRCALLSHRDGAKVCLGTRWTEQQYEAAENMLAFLCQQGFSLENALYAVSAVRVFTLGCVLFDQESQVAKEERETPTTASMPPLLRQAWELKDHQGAEPAFLFGLELIICGLEKQLKCESGS",6.6,
"L6-2C09 (protein, Sulfonylurea responsive repressor) MGSRLDKSKVINSALELLNEVGIEGLTTRKLAQKLGVEQPTLYWHVKNKRALLDALAIEMMDRHQTHYCPLEGESWQDFLRNTAKSMRCALLSHRDGAKVCLGTRWTEQLYETAENQLAFLCQQGFSLENALYAMSAVRVFTLGCVLFDQELQVAKEERETPTTASMPPLLRQAWELKDHQGAEPAFLFGLELIICGLEKQLKCESGS",5.2,
"L6-6F07 (protein, Sulfonylurea responsive repressor) MGSRLDKSKVINSALELLNEVGIEGLTTRKLAQKLGVEQPTLYWHVKNKRALLDALAIEMMDRHATHLCPLEGESWQDFLRNTAKSMRCALLSHRDGAKVCLGTRWTEQQYESAENMLAFLCQQGFSLENALYAMSAVRVFTLGCVLFDQESQVAKEERETPTTASMPPLLRQAWELKDHQGAEPAFLFGLELIICGLEKQLKCESGS",5.1,
"L6-4D10: library L6 clone, parent of the L8 hits (protein, Sulfonylurea responsive repressor, library L6 clone, parent of the L8 hits) MGSRLDKSKVINSALELLNEVGIEGLTTRKLAQKLGVEQPTLYWHVKNKRALLDALAIEMMDRHQTHYCPLEGESWQDFLRNNAKSMRCALLSHRDGAKVCLGTRWTEKQYESAENMLAFLCQQGFSLENALYAVSAVRVFTLGCVLFDQESQVAKEERETPTTASMPPLLRQAWELKDHQGAEPAFLFGLELIICGLEKQLKCESGS",5.0,
"L6-5H06 (protein, Sulfonylurea responsive repressor) MGSRLDKSKVINSALELLNEVGIEGLTTRKLAQKLGVEQPTLYWHVKNKRALLDALAIEMMDRHQTHICPLEGESWQDFLRNNAKSMRCALLSHRDGAKVCLGTRWTEKQYETAENMLAFLCQQGFSLENALYAVSAVRVFTLGCVLFDQELQVAKEERETPTTASMPPLVRQAWELKDHQGAEPAFLFGLELIICGLEKQLKCESGS",5.1,
"L6-5G06 (protein, Sulfonylurea responsive repressor) MGSRLDKSKVINSALELLNEVGIEGLTTRKLAQKLGVEQPTLYWHVKNKRALLDALAIEMMDRHQTHYCPLEGESWQDFLRNNAKSMRCALLSHRDGAKVCLGTRWTEQQYETAENQLAFLCQQGFSLENALYAVSAVRVFTLGCVLFDQELQVAKEERETPTTASMPPLLRQGWELKDHQGAEPAFLFGLELIICGLEKQLKCESGS",7.0,
"L6-5H12 (protein, Sulfonylurea responsive repressor) MGSRLDKSKVINSALELLNEVGIEGLTTRKLAQKLGVEQPTLYWHVKNKRALLDALAIEMMDRHATHYCPLEGESWQDFLRNNAKSMRCALLSHRDGAKVCLGTRWTEKQYETAENQLAFLCQQGFSLENALYAMSAVRVFTLGCVLFDQELQVAKEERETPTTASMPPLVRQAWELKDHQGAEPAFLFGLELIICGLEKQLKCESGS",5.7,
"L6-5F05 (protein, Sulfonylurea responsive repressor) MGSRLDKSKVINSALELLNEVGIEGLTTRKLAQKLGVEQPTLYWHVKNKRALLDALAIEMMDRHATHICPLEGESWQDFLRNNAKSMRCALLSHRDGAKVCLGTRWTEQQYEAAENQLAFLCQQGFSLENALYAVSAVRVFTLGCVLFDQELQVAKEERETPTTASMPPLLRQAWELKDHQGAEPAFLFGLELIICGLEKQLKCESGS",5.4,
"L6-3H02 (protein, Sulfonylurea responsive repressor) MGSRLDKSKVINSALELLNEVGIEGLTTRKLAQKLGVEQPTLYWHVKNKRALLDALAIEMMDRHATHYCPLEGESWQDFLRNTAKSMRCALLSHRDGAKVCLGTRWTEQHYESAENMLAFLCQQGFSLENALYAVSAVRVFTLGCVLFDQESQVAKEERETPTTASMPPLVRQAWELKVHQGAEPAFLFGLELIICGLEKQLKCESGS",5.6,
"L6-2D07 (protein, Sulfonylurea responsive repressor) MGSRLDKSKVINSALELLNEVGIEGLTTRKLAQKLGVEQPTLYWHVKNKRALLDALAIEMMDRHQTHFCPLEGESWQDFLRNTAKSMRCALLSHRDGAKVCLGTRWTEQQYETAENMLAFLCQQGFSLENALYAMSAVRVFTLGCVLFDQESQVAKEERETPTTASMPPLVRQAWELKDHQGAEPAFLFGLELIICGLEKQLKCESGS",5.8,
"L1-29: first round library L1 sulfonylurea repressor parental clone (protein, Sulfonylurea responsive repressor, first round library L1 sulfonylurea repressor parental clone) MGSRLDKSKVINSALELLNEVGIEGLTTRKLAQKLGVEQPTLYWHVKNKRALLDALAIEMMDRHQTHFCPLEGESWQDFLRNTAKSMRCALLSHRDGAKVWLGTRWTEKQYETPENMLAFLCQQGFSLENALYAWSAVCNFTLGCVLSDQERQVAKEERETPTTDSMPPLLRQAWELSDHQGAEPAFLFGLELIICGLEKQLKCESGS",,metsulfuron activity [2]: moderate
"L1-22: first round library L1 sulfonylurea repressor parental clone (protein, Sulfonylurea responsive repressor, first round library L1 sulfonylurea repressor parental clone) MGSRLDKSKVINSALELLNEVGIEGLTTRKLAQKLGVEQPTLYWHVKNKRALLDALAIEMMDRHHTHFCPLEGESWQDFLRNTAKSYRCALLSHRDGAKVCLGTAITEKQYETKENNLAFLCQQGFSLENALYARQAVRVFTLGCVLFDQEMQVAKEERETPTTDSMPPLLRQASELLDHQGAEPAFLFGLELIICGLEKQLKSESGS",,sulfometuron activity [2]: strong
"L8-3F01: library L8 chlorsulfuron repressor hit, parent for saturation mutagenesis and CsL3 (protein, Sulfonylurea responsive repressor, library L8 chlorsulfuron repressor hit, parent for saturation mutagenesis and CsL3) MARLDKSKVINSALELLNEVGIEGLTTRKLAQKLGVEQPTLYWHVKNKRALLDALAIEMMDRHQTHYLPLEGESWQDFLRNNAKSCRRALLSHRDGAKVCLGTRWTEQQYETAENMLAFLTQQGFSLENALYAVSAVRVFTLGAVLFDQESQVAKEERETPTTDSMPPLLRQAWELKDHQGAEPAFLFGLELIIAGLEKQLKRESGS",,"F.IND = fold induction (IND/REP) (Colony Assay Results) ([1]; CsL3 hits, 20 ppb Cs vs no inducer): 2.5"
"L1-44: first round library L1 sulfonylurea repressor parental clone (protein, Sulfonylurea responsive repressor, first round library L1 sulfonylurea repressor parental clone) MGSRLDKSKVINSALELLNEVGIEGLTTRKLAQKLGVEQPTLYWHVKNKRALLDALAIEMLDRHATHFCPLEGESWQDFLRNNAKSYRCALLSHRDGAKVYLGTAVTEKQYETAENQLAFLCQQGFSLENALYAVKAVAGFTLGCVLWDQESQVAKEERETPTTASMPPLLRQAVELADHQGAEPAFLFGLELIICGLEKQLKCESGS",,activity on chlorsulfuron [2]: moderate; activity on ethametsulfuron [2]: moderate; metsulfuron activity [2]: moderate
